# Laboratory results from publication PMC11999149.
# Where two headings read alike, the source gives them in different places.
# Assays:
# [1] = biological target: membrane truncated soluble E2 (sE2, residues 384-645) of the H77 isolate (hepatitis C virus, isolate H77, genotype 1a) (UniProt P27958); assay: SPR
# [2] = biological target: membrane truncated soluble E2 (sE2, residues 384-645) of the H77 isolate (Hepatitis C virus genotype 1a, isolate H77) (UniProt P27958); assay: SPR
# [3] = biological target: AR2A; assay: ELISA; conditions: IgG at its EC50; normalized using the signal of HCV1 at EC50
# [4] = biological target: AR3A full-length IgG (reference); assay: ELISA; conditions: IgG at its EC50; normalized using the signal of HCV1 at EC50
Substance,percent of parent [3] [% WT],percent of parent [4] [% WT],also measured
A3_9 full-length IgG1 (from UniProt P01857),–,–,Kd [1]: 0.0448 nM; koff [1]: 1.02e-05 s⁻¹
AR3A Fab (reference),–,–,Kd [2]: 10 nM
Fab #2 (group I) (from UniProt P01857),–,–,Kd ([1]; Fab): 0.19 nM; koff ([1]; Fab): 2.08e-05 s⁻¹
Fab A2_11 (group II) (from UniProt P01857),–,–,Kd ([1]; Fab): 0.66 nM; koff ([1]; Fab): 4.41e-05 s⁻¹
Fab A3_9 (from UniProt P01857),–,–,Kd ([1]; Fab): 1.6 nM; koff ([1]; Fab): 0.000119 s⁻¹
Fab A8_9 (group III) (from UniProt P01857),–,–,Kd ([1]; Fab): 4.02 nM; koff ([1]; Fab): 0.000299 s⁻¹
Fab B1_9 (group II) (from UniProt P01857),–,–,Kd ([1]; Fab): 2.62 nM; koff ([1]; Fab): 0.000299 s⁻¹
Fab B1_11 (group I) (from UniProt P01857),–,–,Kd ([1]; Fab): 0.485 nM; koff ([1]; Fab): 3.33e-05 s⁻¹
detergent-extracted full-length E1/E2 of HCV isolate H77 (genotype 1a) (from UniProt P27958) C429A,43,3,–
detergent-extracted full-length E1/E2 of HCV isolate H77 (genotype 1a) (from UniProt P27958) F442A,71,2,–
detergent-extracted full-length E1/E2 of HCV isolate H77 (genotype 1a) (from UniProt P27958) F627A,38,68,–
detergent-extracted full-length E1/E2 of HCV isolate H77 (genotype 1a) (from UniProt P27958) G436A,123,22,–
detergent-extracted full-length E1/E2 of HCV isolate H77 (genotype 1a) (from UniProt P27958) G440A,79,10,–
detergent-extracted full-length E1/E2 of HCV isolate H77 (genotype 1a) (from UniProt P27958) K628A,24,63,–
detergent-extracted full-length E1/E2 of HCV isolate H77 (genotype 1a) (from UniProt P27958) L427A,67,7,–
detergent-extracted full-length E1/E2 of HCV isolate H77 (genotype 1a) (from UniProt P27958) L438A,88,4,–
detergent-extracted full-length E1/E2 of HCV isolate H77 (genotype 1a) (from UniProt P27958) L441A,85,5,–
detergent-extracted full-length E1/E2 of HCV isolate H77 (genotype 1a) (from UniProt P27958) N428A,70,6,–
detergent-extracted full-length E1/E2 of HCV isolate H77 (genotype 1a) (from UniProt P27958) R630A,43,84,–
detergent-extracted full-length E1/E2 of HCV isolate H77 (genotype 1a) (from UniProt P27958) T425A,77,6,–
detergent-extracted full-length E1/E2 of HCV isolate H77 (genotype 1a) (from UniProt P27958) T625A,28,12,–
detergent-extracted full-length E1/E2 of HCV isolate H77 (genotype 1a) (from UniProt P27958) W437A,98,4,–
detergent-extracted full-length E1/E2 of HCV isolate H77 (genotype 1a) (from UniProt P27958) Y485A,94,76,–
